Data: article PMC11645235 (Cell, 2024)
Values joined by “and” are separate entries in the source; they are usually repeats but may differ in a detail not shown here. Identical values can stand only once.

Key:
[1] = target: CRISPR-associated adenosine deaminase 1 (Cad1); assay: ITC; co-crystal structure at […] Å; assay type: binding, Bacteroidales bacterium
[2] = target: CRISPR-associated adenosine deaminase 1 (Cad1), hexa-histidyl tagged, full length (unknown Bacteroidales bacterium); assay: SEC-MALS; Superdex 200 10/300 increase column in buffer A (25 mM Hepes pH 8, 200 mM NaCl, 2 mM beta-mercaptoethanol, 5% glycerol); full-length Cad1 at 20 uM, apo and also after incubation with cA4 or cA6, ATP and MgCl2 (1:5:50:50) at 37 C
[3] = target: Cad1 E408A mutant (unknown Bacteroidales bacterium); assay: as above
[4] = target: Cad1 K342A mutant (unknown Bacteroidales bacterium); assay: as above
[5] = target: Cad1 W349A mutant (unknown Bacteroidales bacterium); assay: as above
[6] = target: hexa-histidyl-tagged CARF domain of Cad1 (residues 1-185) (unknown Bacteroidales bacterium); assay: as above

Nc1ncnc2c1ncn2[C@@H]1O[C@@H]2COP(=O)(O)O[C@H]3[C@@H](O)[C@H](n4cnc5c(N)ncnc54)O[C@@H]3COP(=O)(O)O[C@H]3[C@@H](O)[C@H](n4cnc5c(N)ncnc54)O[C@@H]3COP(=O)(O)O[C@H]3[C@@H](O)[C@H](n4cnc5c(N)ncnc54)O[C@@H]3COP(=O)(O)O[C@H]3[C@@H](O)[C@H](n4cnc5c(N)ncnc54)O[C@@H]3COP(=O)(O)O[C@H]3[C@@H](O)[C@H](n4cnc5c(N)ncnc54)O[C@@H]3COP(=O)(O)O[C@H]2[C@H]1O [cA6]
Kd [1]: 30 nM

CRISPR-associated adenosine deaminase 1 (Cad1), hexa-histidyl tagged, full length (enzyme)
stoichiometry N [2]: 6 and 2

Cad1 E408A mutant (enzyme)
stoichiometry N [3]: 6

Cad1 K342A mutant (enzyme)
stoichiometry N [4]: 6

Cad1 W349A mutant (enzyme)
stoichiometry N [5]: 2

hexa-histidyl-tagged CARF domain of Cad1 (residues 1-185) (domain or fragment)
stoichiometry N [6]: 2
